Numbered stars: 1 amine (or outer) side, 2 acyl side, 3 side chain; on linkers, the order of the positions; unused ones are H or OH. Bridge positions count the residues as written; N and C are the ends. Side chains are listed from the residue outwards. Ends that are not written are not given here. * marks the point of attachment. C20 diacid = O=C(O)CCCCCCCCCCCCCCCCCCC(=O)*; γGlu = O=C(O)[C@H](CCC(=O)[*:2])N[*:1]; AEEA = NCCOCCOCC(=O)O
T1: human amylin receptor (amylin 3(a) receptor: human calcitonin receptor co-expressed with RAMP-3) (human, UniProt P30988 25-474; O60896 24-148, limits assumed)
T1 sequence (looked up) 1: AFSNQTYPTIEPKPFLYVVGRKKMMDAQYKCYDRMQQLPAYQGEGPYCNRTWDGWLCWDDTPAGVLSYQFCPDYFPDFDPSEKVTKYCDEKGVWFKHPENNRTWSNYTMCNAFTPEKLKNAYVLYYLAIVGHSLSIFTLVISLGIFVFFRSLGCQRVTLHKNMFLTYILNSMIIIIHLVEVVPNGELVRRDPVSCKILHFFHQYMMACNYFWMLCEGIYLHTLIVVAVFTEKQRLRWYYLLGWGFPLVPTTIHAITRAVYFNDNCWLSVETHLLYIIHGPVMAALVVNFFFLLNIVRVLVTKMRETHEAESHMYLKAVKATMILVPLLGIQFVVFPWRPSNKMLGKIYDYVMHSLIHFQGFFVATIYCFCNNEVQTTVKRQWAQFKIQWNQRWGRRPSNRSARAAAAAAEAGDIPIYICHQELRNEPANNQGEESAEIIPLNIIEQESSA
T1 sequence (looked up) 2: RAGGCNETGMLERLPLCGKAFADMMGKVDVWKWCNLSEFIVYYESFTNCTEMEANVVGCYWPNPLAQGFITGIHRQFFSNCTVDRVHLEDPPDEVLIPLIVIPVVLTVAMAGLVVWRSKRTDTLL

T2: human calcitonin receptor (human, UniProt P30988 25-474)
T2 sequence (looked up): T1 sequence (looked up) 1

B1: N^ε1-[2-[2-[2-[[(4S)-4-carboxy-4-(19-carboxynonadecanoylamino)butanoyl]amino]ethoxy]ethoxy]acetyl]-[Arg17,Pro21,Pro27,Pro29,Pro31]-h-amylin (peptide)
peptide: K([AEEA-γGlu-C20 diacid])CNTATCATQRLANFLRHSSPNFGAIPSPTPVGSNTY-NH2
modifications: disulfide 2-7; N-terminus assumed
SMILES: CC[C@H](C)[C@H](NC(=O)[C@H](C)NC(=O)CNC(=O)[C@H](Cc1ccccc1)NC(=O)[C@H](CC(N)=O)NC(=O)[C@@H]1CCCN1C(=O)[C@H](CO)NC(=O)[C@H](CO)NC(=O)[C@H](Cc1c[nH]cn1)NC(=O)[C@H](CCCNC(=N)N)NC(=O)[C@H](CC(C)C)NC(=O)[C@H](Cc1ccccc1)NC(=O)[C@H](CC(N)=O)NC(=O)[C@H](C)NC(=O)[C@H](CC(C)C)NC(=O)[C@H](CCCNC(=N)N)NC(=O)[C@H](CCC(N)=O)NC(=O)[C@@H](NC(=O)[C@H](C)NC(=O)[C@@H]1CSSC[C@H](NC(=O)[C@@H](N)CCCCNC(=O)COCCOCCNC(=O)CC[C@H](NC(=O)CCCCCCCCCCCCCCCCCCC(=O)O)C(=O)O)C(=O)N[C@@H](CC(N)=O)C(=O)N[C@@H]([C@@H](C)O)C(=O)N[C@@H](C)C(=O)N[C@@H]([C@@H](C)O)C(=O)N1)[C@@H](C)O)C(=O)N1CCC[C@H]1C(=O)N[C@@H](CO)C(=O)N1CCC[C@H]1C(=O)N[C@H](C(=O)N1CCC[C@H]1C(=O)N[C@H](C(=O)NCC(=O)N[C@@H](CO)C(=O)N[C@@H](CC(N)=O)C(=O)N[C@H](C(=O)N[C@@H](Cc1ccc(O)cc1)C(N)=O)[C@@H](C)O)C(C)C)[C@@H](C)O
notes: also called compound 54
B2: N^ε1-[2-[2-[2-[[(4S)-4-carboxy-4-(19-carboxynonadecanoylamino)butanoyl]amino]ethoxy]ethoxy]acetyl]-[Arg17,Pro21,Pro27,Pro29,Pro34]-h-amylin (peptide)
peptide: K([AEEA-γGlu-C20 diacid])CNTATCATQRLANFLRHSSPNFGAIPSPTNVGPNTY-NH2
modifications: disulfide 2-7; N-terminus assumed
SMILES: CC[C@H](C)[C@H](NC(=O)[C@H](C)NC(=O)CNC(=O)[C@H](Cc1ccccc1)NC(=O)[C@H](CC(N)=O)NC(=O)[C@@H]1CCCN1C(=O)[C@H](CO)NC(=O)[C@H](CO)NC(=O)[C@H](Cc1c[nH]cn1)NC(=O)[C@H](CCCNC(=N)N)NC(=O)[C@H](CC(C)C)NC(=O)[C@H](Cc1ccccc1)NC(=O)[C@H](CC(N)=O)NC(=O)[C@H](C)NC(=O)[C@H](CC(C)C)NC(=O)[C@H](CCCNC(=N)N)NC(=O)[C@H](CCC(N)=O)NC(=O)[C@@H](NC(=O)[C@H](C)NC(=O)[C@@H]1CSSC[C@H](NC(=O)[C@@H](N)CCCCNC(=O)COCCOCCNC(=O)CC[C@H](NC(=O)CCCCCCCCCCCCCCCCCCC(=O)O)C(=O)O)C(=O)N[C@@H](CC(N)=O)C(=O)N[C@@H]([C@@H](C)O)C(=O)N[C@@H](C)C(=O)N[C@@H]([C@@H](C)O)C(=O)N1)[C@@H](C)O)C(=O)N1CCC[C@H]1C(=O)N[C@@H](CO)C(=O)N1CCC[C@H]1C(=O)N[C@H](C(=O)N[C@@H](CC(N)=O)C(=O)N[C@H](C(=O)NCC(=O)N1CCC[C@H]1C(=O)N[C@@H](CC(N)=O)C(=O)N[C@H](C(=O)N[C@@H](Cc1ccc(O)cc1)C(N)=O)[C@@H](C)O)C(C)C)[C@@H](C)O
notes: also called compound 56
B3: N^ε1-[2-[2-[2-[[(4S)-4-carboxy-4-(19-carboxynonadecanoylamino)butanoyl]amino]ethoxy]ethoxy]acetyl]-[Arg17,Pro21,Pro27,Pro31,His35]-h-amylin (peptide)
peptide: K([AEEA-γGlu-C20 diacid])CNTATCATQRLANFLRHSSPNFGAIPSSTPVGSHTY-NH2
modifications: disulfide 2-7; N-terminus assumed
SMILES: CC[C@H](C)[C@H](NC(=O)[C@H](C)NC(=O)CNC(=O)[C@H](Cc1ccccc1)NC(=O)[C@H](CC(N)=O)NC(=O)[C@@H]1CCCN1C(=O)[C@H](CO)NC(=O)[C@H](CO)NC(=O)[C@H](Cc1c[nH]cn1)NC(=O)[C@H](CCCNC(=N)N)NC(=O)[C@H](CC(C)C)NC(=O)[C@H](Cc1ccccc1)NC(=O)[C@H](CC(N)=O)NC(=O)[C@H](C)NC(=O)[C@H](CC(C)C)NC(=O)[C@H](CCCNC(=N)N)NC(=O)[C@H](CCC(N)=O)NC(=O)[C@@H](NC(=O)[C@H](C)NC(=O)[C@@H]1CSSC[C@H](NC(=O)[C@@H](N)CCCCNC(=O)COCCOCCNC(=O)CC[C@H](NC(=O)CCCCCCCCCCCCCCCCCCC(=O)O)C(=O)O)C(=O)N[C@@H](CC(N)=O)C(=O)N[C@@H]([C@@H](C)O)C(=O)N[C@@H](C)C(=O)N[C@@H]([C@@H](C)O)C(=O)N1)[C@@H](C)O)C(=O)N1CCC[C@H]1C(=O)N[C@@H](CO)C(=O)N[C@@H](CO)C(=O)N[C@H](C(=O)N1CCC[C@H]1C(=O)N[C@H](C(=O)NCC(=O)N[C@@H](CO)C(=O)N[C@@H](Cc1c[nH]cn1)C(=O)N[C@H](C(=O)N[C@@H](Cc1ccc(O)cc1)C(N)=O)[C@@H](C)O)C(C)C)[C@@H](C)O
notes: also called compound 57
B4: N^ε1-[2-[2-[2-[[(4S)-4-carboxy-4-(19-carboxynonadecanoylamino)butanoyl]amino]ethoxy]ethoxy]acetyl]-[Arg17,Pro21,Pro27,Pro31]-h-amylin (peptide)
peptide: K([AEEA-γGlu-C20 diacid])CNTATCATQRLANFLRHSSPNFGAIPSSTPVGSNTY-NH2
modifications: disulfide 2-7; N-terminus assumed
SMILES: CC[C@H](C)[C@H](NC(=O)[C@H](C)NC(=O)CNC(=O)[C@H](Cc1ccccc1)NC(=O)[C@H](CC(N)=O)NC(=O)[C@@H]1CCCN1C(=O)[C@H](CO)NC(=O)[C@H](CO)NC(=O)[C@H](Cc1c[nH]cn1)NC(=O)[C@H](CCCNC(=N)N)NC(=O)[C@H](CC(C)C)NC(=O)[C@H](Cc1ccccc1)NC(=O)[C@H](CC(N)=O)NC(=O)[C@H](C)NC(=O)[C@H](CC(C)C)NC(=O)[C@H](CCCNC(=N)N)NC(=O)[C@H](CCC(N)=O)NC(=O)[C@@H](NC(=O)[C@H](C)NC(=O)[C@@H]1CSSC[C@H](NC(=O)[C@@H](N)CCCCNC(=O)COCCOCCNC(=O)CC[C@H](NC(=O)CCCCCCCCCCCCCCCCCCC(=O)O)C(=O)O)C(=O)N[C@@H](CC(N)=O)C(=O)N[C@@H]([C@@H](C)O)C(=O)N[C@@H](C)C(=O)N[C@@H]([C@@H](C)O)C(=O)N1)[C@@H](C)O)C(=O)N1CCC[C@H]1C(=O)N[C@@H](CO)C(=O)N[C@@H](CO)C(=O)N[C@H](C(=O)N1CCC[C@H]1C(=O)N[C@H](C(=O)NCC(=O)N[C@@H](CO)C(=O)N[C@@H](CC(N)=O)C(=O)N[C@H](C(=O)N[C@@H](Cc1ccc(O)cc1)C(N)=O)[C@@H](C)O)C(C)C)[C@@H](C)O
notes: also called compound 49
B5: N^ε1-[2-[2-[2-[[(4S)-4-carboxy-4-(19-carboxynonadecanoylamino)butanoyl]amino]ethoxy]ethoxy]acetyl]-[Arg17,Pro21,Pro27,Pro34,His35]-h-amylin (peptide)
peptide: K([AEEA-γGlu-C20 diacid])CNTATCATQRLANFLRHSSPNFGAIPSSTNVGPHTY-NH2
modifications: disulfide 2-7; N-terminus assumed
SMILES: CC[C@H](C)[C@H](NC(=O)[C@H](C)NC(=O)CNC(=O)[C@H](Cc1ccccc1)NC(=O)[C@H](CC(N)=O)NC(=O)[C@@H]1CCCN1C(=O)[C@H](CO)NC(=O)[C@H](CO)NC(=O)[C@H](Cc1c[nH]cn1)NC(=O)[C@H](CCCNC(=N)N)NC(=O)[C@H](CC(C)C)NC(=O)[C@H](Cc1ccccc1)NC(=O)[C@H](CC(N)=O)NC(=O)[C@H](C)NC(=O)[C@H](CC(C)C)NC(=O)[C@H](CCCNC(=N)N)NC(=O)[C@H](CCC(N)=O)NC(=O)[C@@H](NC(=O)[C@H](C)NC(=O)[C@@H]1CSSC[C@H](NC(=O)[C@@H](N)CCCCNC(=O)COCCOCCNC(=O)CC[C@H](NC(=O)CCCCCCCCCCCCCCCCCCC(=O)O)C(=O)O)C(=O)N[C@@H](CC(N)=O)C(=O)N[C@@H]([C@@H](C)O)C(=O)N[C@@H](C)C(=O)N[C@@H]([C@@H](C)O)C(=O)N1)[C@@H](C)O)C(=O)N1CCC[C@H]1C(=O)N[C@@H](CO)C(=O)N[C@@H](CO)C(=O)N[C@H](C(=O)N[C@@H](CC(N)=O)C(=O)N[C@H](C(=O)NCC(=O)N1CCC[C@H]1C(=O)N[C@@H](Cc1c[nH]cn1)C(=O)N[C@H](C(=O)N[C@@H](Cc1ccc(O)cc1)C(N)=O)[C@@H](C)O)C(C)C)[C@@H](C)O
notes: also called compound 58
B6: N^ε1-[2-[2-[2-[[(4S)-4-carboxy-4-(19-carboxynonadecanoylamino)butanoyl]amino]ethoxy]ethoxy]acetyl]-[Arg17,Pro21,Pro27,Pro34]-h-amylin (peptide)
peptide: K([AEEA-γGlu-C20 diacid])CNTATCATQRLANFLRHSSPNFGAIPSSTNVGPNTY-NH2
modifications: disulfide 2-7; N-terminus assumed
SMILES: CC[C@H](C)[C@H](NC(=O)[C@H](C)NC(=O)CNC(=O)[C@H](Cc1ccccc1)NC(=O)[C@H](CC(N)=O)NC(=O)[C@@H]1CCCN1C(=O)[C@H](CO)NC(=O)[C@H](CO)NC(=O)[C@H](Cc1c[nH]cn1)NC(=O)[C@H](CCCNC(=N)N)NC(=O)[C@H](CC(C)C)NC(=O)[C@H](Cc1ccccc1)NC(=O)[C@H](CC(N)=O)NC(=O)[C@H](C)NC(=O)[C@H](CC(C)C)NC(=O)[C@H](CCCNC(=N)N)NC(=O)[C@H](CCC(N)=O)NC(=O)[C@@H](NC(=O)[C@H](C)NC(=O)[C@@H]1CSSC[C@H](NC(=O)[C@@H](N)CCCCNC(=O)COCCOCCNC(=O)CC[C@H](NC(=O)CCCCCCCCCCCCCCCCCCC(=O)O)C(=O)O)C(=O)N[C@@H](CC(N)=O)C(=O)N[C@@H]([C@@H](C)O)C(=O)N[C@@H](C)C(=O)N[C@@H]([C@@H](C)O)C(=O)N1)[C@@H](C)O)C(=O)N1CCC[C@H]1C(=O)N[C@@H](CO)C(=O)N[C@@H](CO)C(=O)N[C@H](C(=O)N[C@@H](CC(N)=O)C(=O)N[C@H](C(=O)NCC(=O)N1CCC[C@H]1C(=O)N[C@@H](CC(N)=O)C(=O)N[C@H](C(=O)N[C@@H](Cc1ccc(O)cc1)C(N)=O)[C@@H](C)O)C(C)C)[C@@H](C)O
notes: also called compound 50

Target: T1, human amylin receptor (amylin 3(a) …)
Assay: cell-based or functional assay

Binder | hAmylin-R funct. EC50
B1 | 0.103 nM
B2 | 0.102 nM
B3 | 0.089 nM
B4 | 0.106 nM
B5 | 0.047 nM
B6 | 0.038 nM

Target: T2, human calcitonin receptor
Assay: cell-based or functional assay

Binder | Ratio hCT/hAmylin funct. (hCTR EC50 against hAmylin-R EC50) | hCTR funct. EC50
B1 | 9.6 | 0.987 nM
B2 | 5 | 0.506 nM
B3 | 35 | 3.12 nM
B4 | 22.5 | 2.39 nM
B5 | 21.9 | 1.03 nM
B6 | 17.4 | 0.662 nM
